Assay results reported in US20230126400A1 (Alector, published 2023).

T1: human MS4A6A ECL1 peptide (amino acid residues 68-85) (human)
T1 peptide: SASFSPNFTQVTSTLLNS

T2: human MS4A6A ECL2 peptide (amino acid residues 138-185) (human)
T2 peptide: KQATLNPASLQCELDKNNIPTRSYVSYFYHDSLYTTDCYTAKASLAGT

T3: BSA-conjugated human MS4A4A ECL2 peptide (amino acid residues 159-179) (human, conjugated to BSA (site not stated))
T3 construct: also called MS4A4A-ECL2 BSA conjugated peptide; BSA-MS4A4A-ELC2 peptide
T3 peptide: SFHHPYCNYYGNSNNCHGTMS

T4: human MS4A4A ECL1 peptide (amino acid residues 86-98) (human)
T4 construct: synthetic peptide
T4 peptide: CMASNTYGSNPIS


How the values were obtained:
[1] = molecular target: T1, human MS4A6A ECL1 peptide (amino acid …); assay: array SPR
Protocol: (§1) Binding kinetic characterization of the anti-MS4A4A antibodies to MS4A4A ECL1 and ECL2 and to MS4A6A ECL1 and ECL2 peptides was performed by Carterra (South San Francisco, Calif.) using a proprietary array Surface Plasmon Resonance (SPR) instrument (MX-96) as follows. Antibodies were captured onto a CMD500D chip (Xantec # SPMX CMD500D) using the Continous Flow Microspotter (CFM). First, the chip was activated with 100 mM MES pH 5.5, 100 μL EDC (133 mM final), 100 μL of S-NHS (33.3 mM final), for 7 minutes. […] Anti-MS4A4A hydridoma supernatant or purified anti-MS4A4A antibodies were diluted in HBS-EP+ buffer (Teknova Cat # H8022) and then printed as duplicates with a 20 minute and a 5-minute print from the same sample solution.
(§2) These were then injected on the chip for five minutes, followed by a seven-minute dissociation period at 8 uL per second in a non-regenerative kinetic series. Duplicate measurements for each anti-MS4A4A antibody were taken to ensure reproducibility. Association rates (Kon) and dissociation rates (Koff) were calculated using a single one-to-one Langmuir binding model. The equilibrium dissociation constant (KD) was calculated as the ration of Koff/Kon.

[2] = molecular target: T2, human MS4A6A ECL2 peptide (amino acid …); assay: array SPR
Protocol: as §1, §2

[3] = molecular target: T3, BSA-conjugated human MS4A4A ECL2 …; assay: ELISA, supernatant
Protocol: (§3) Briefly, 96-well polystyrene plates were coated with 1-10 μg/ml of synthetic free or BSA-conjugated peptides in coating buffer (0.05M carbonate buffer, pH9.6, Millipore Sigma C3041) overnight at 4° C. Coated plates were then blocked with ELISA diluent (PBS+0.5% BSA+0.05% Tween20) for 1-hour, washed 3×300 μL in PBST (PBS+0.05% Tween20, Thermo Cat#28352), and then the antibodies were added to the plate ([…]). After 30 mins incubation (room temperature, with shaking), the plates were washed 3×300 μL in PBST. […] After a final set of washes (3×300 μL in PBST), 50 μL of TMB substrate (BioFx TMBW-1000-01) was added and the reaction was then quenched after 5-10 mins with 50 μL of stop solution (BioFx BSTP-1000-01). The quenched reaction wells were detected for absorbance at 650 nm with a BioTek Synergy Microplate Reader using GENS 2.04 software.

[4] = molecular target: T4, human MS4A4A ECL1 peptide (amino acid …); assay: ELISA, hybridoma supernatant
Protocol: as §3

human MS4A4A = human MS4A4A (human, UniProt Q96JQ5 1-239); assay: FACS, HEK293, supernatant
Protocol: (§4) Positive clones identified above were expanded and then rescreened for specificity against HEK293 cells overexpressing human MS4A4A or cyno MS4A4A and parental HEK293 cells. These experiments were performed using supernatants from hybridoma clones which had undergone further expansion after initial selection. Briefly, previously prepared, cryopreserved transiently-transfected cells were labeled with LIVE/DEAD Fixable Aqua Dead Cell Stain Kit (ThermoFisher Scientific L34957) on ice for 30 minutes. After a wash with PBS, 2×10⁵ cells were aliquoted per well in 96-well U-bottom plates and incubated with 50 μl of culture supernatant on ice for 30 minutes. […] Following this secondary incubation, the cells were again washed twice with ice-cold FACS buffer and resuspended in a final volume of 200 μl of FACS buffer. Analysis was performed on a FACS Canto system (BD Biosciences), with sort gates drawn to exclude dead (Aqua-positive) cells. Positive clones (fold change of 1.8 or greater) were carried forward for further testing.

cynomolgus (cyno) MS4A4A = molecular target: T5, cynomolgus (cyno) MS4A4A (cynomolgus); assay: FACS, HEK293, supernatant
T5 construct: also called cy4A; Cyno 4A
Protocol: as §4

| Binder | binding result [1] | binding result [2] | binding result [3] | binding result [4] | Human 4A:parental cell ratio (human MS4A4A) [ratio] | Cyno 4A:parental cell ratio (cynomolgus (cyno) MS4A4A) [ratio] |
| --- | --- | --- | --- | --- | --- | --- |
| anti-MS4A4A antibody 4A-20 (antibody, V domains shown, murine hybridoma antibody) VH: EVQLQQSGPELVKPGASVKIPCKASGYTFTDYNMDWVKQSHGKSLDWIGDINPNNGYTIYNQKFKGKATLTVDKSSSTAYMELRRLTSEDTAVYYCARSTGPYFDYWGQGTTLTVSS VL: DIQMTQSPASLSASVGETVTITCRASENIYSYLAWYQQKQGKSPQFLVYNGKTLAEGVPSRFSGCGSGTQFSLKINSLQPEDFGSYYCQHHYGIPRTFGGGTKLEIK | no binding (tested: 2000 nM) | no binding (tested: 2000 nM) | binds | no binding |  |  |
| anti-MS4A4A antibody 4A-10 (antibody, V domains shown, murine hybridoma antibody) VH: EVKLEESGGGLVQPGGSMKLSCAASGFTFSDAWMDWVRQSPEKGLEWVAEIRSKANDHATYYAESVKGRFTISRDDSKSSVYLQMNSLRAEDTGIYYCSVDYYGFFWGQGTLVTVSA VL: not shown | no binding (tested: 2000 nM) | no binding (tested: 2000 nM) |  | no binding | 6.55 | 2.33 |
| anti-MS4A4A antibody 4A-13 (antibody, V domains shown, murine hybridoma antibody; same VH and VL entries as 4A-10) VH: EVKLEESGGGLVQPGGSMKLSCAASGFTFSDAWMDWVRQSPEKGLEWVAEIRSKANDHATYYAESVKGRFTISRDDSKSSVYLQMNSLRAEDTGIYYCSVDYYGFFWGQGTLVTVSA VL: not shown | no binding (tested: 2000 nM) | no binding (tested: 2000 nM) |  | no binding | 43.8 | 9.94 |
| anti-MS4A4A antibody 4A-16 (antibody, V domains shown, murine hybridoma antibody) VH: EVKLEESGGGLVQPGGSMKLSCAASGFTFSDAWMDWVRQSPEKGLEWVAEIRSKANDHATYYAESVKGRFTISRDDSKSSVYLQMNSLRAEDTGIYYCSVDYYGFFWGQGTMVTVSA VL: not shown | no binding (tested: 2000 nM) | no binding (tested: 2000 nM) | binds | no binding | 5.93 | 2.65 |
| anti-MS4A4A antibody 4A-19 (antibody, V domains shown, murine hybridoma antibody) VH: QVQLQQSGAELARPGASVKLSCKASGYSFIDYGISWVKQRTGQGLEWIGEIYPRSGNTYYNEKFKGKATLTADKSSSTAYMELRSLTSEDSAVYFCARKGLLRDFDYWGQGTTLTVSS VL: not shown | no binding (tested: 2000 nM) | no binding (tested: 2000 nM) | binds | no binding | 1.86 | 1.51 |
| anti-MS4A4A antibody 4A-11 (antibody, V domains shown, murine hybridoma antibody) VH: EVKLEESGGGLVQPGGSMKLSCAASGFTFSDAWMDWVRQSPEKGLEWVAEIRSKTDNHATYFAESVKGRFTISRDDSKSSVYLQMNSLRAGDTGIYYCYGSTFASWGQGTLVTVSS VL: not shown | no binding (tested: 2000 nM) | no binding (tested: 2000 nM) | binds | no binding | 9.12 | 2.11 |

The remaining lines, values ahead:

| binding result [1] | binding result [2] | binding result [3] | binding result [4] | Human 4A:parental cell ratio (human MS4A4A) [ratio] | Cyno 4A:parental cell ratio (cynomolgus (cyno) MS4A4A) [ratio] | Binder |
| --- | --- | --- | --- | --- | --- | --- |
| no binding (tested: 2000 nM) | no binding (tested: 2000 nM) | binds | no binding | 4.78 | 2 | anti-MS4A4A antibody 4A-4 (antibody, V domains shown, murine hybridoma antibody) VH: EIQLQQTGPDLVKPGTSVKISCKASGYSFTDYVLVWVKQSHGKSLEWIGNINPYYGNSDYNLKFEGKARLTVDRSSSTAYMQLNSLTSEDSAVYYCARYGLYAMDFWGQGTSVTVSS VL: DVLMTQTPLSLPVSLGDQASISCRSSQTIVHSNGNSYLEWYLQKPGQSPKLLIYKVSNRFSGVPDRFSGSGSGTVFTLKISRVEAEDLGVYFCFQSSHVPLTFGVGTKLELK |
| no binding (tested: 2000 nM) | no binding (tested: 2000 nM) | binds | no binding | 5.7 | 3.3 | anti-MS4A4A antibody 4A-8 (antibody, V domains shown, murine hybridoma antibody) VH: EVKLVESGGGLVQPGGSLKLSCATSGFTFSDYYMYWVRQTPEKRLEWVAYINNGGGSTYYPDTVKGRFTISRDNAKNTLYLQMSRLKSEDTAMYYCARQGNLIYYSGSSLFAYWGQGTMVTVSS VL: DVLMTQTPLSLPVSLGDQASISCRSSQSIVHSNRNTYLEWYVQKPGQSPKLLIYKVSNRFSGVPDRFSGSGSGTDFTLKISRVEAEDLGVYYCFQGSHVPWTFGGGTKLEIK |
| no binding (tested: 2000 nM) | no binding (tested: 2000 nM) | binds | no binding | 7.97 | 3.98 | anti-MS4A4A antibody 4A-7 (antibody, V domains shown, murine hybridoma antibody) VH: EIQLQQTGPELVKPGASVKISCKASGYSFTDYVMIWVKQSHGKSLEWIGNINPYYGSTSYNLKFKGKATLTVDKSSSTAYMQLKSLTSEDSAVYYCARYGYDALDNWGQGTSVTVSS VL: DVLLTQTPLSLPVSLGDQASISCRSSQSIVHSNGNTYLDWSLQKPGQSPKLLIYRVSNRFSGVPDRFSGSGSGTDFTLKISRVEAEDLGVYYCFQGSHVPLTFGAGTKLELK |
| no binding (tested: 2000 nM) | no binding (tested: 2000 nM) | binds | no binding | 8.13 | 4.67 | anti-MS4A4A antibody 4A-15 (antibody, V domains shown, murine hybridoma antibody) VH: EIQLQQTGPDLVKPGASVKISCKASGYSFTDYVILWVKQSHGKTLEWIGHINPYYANSDYNVNFRGKATLTVDKSSSTAHMQLNSLTSEDSAVYYCVRYGSGMDYWGQGTSVTVSS VL: DVLMTQTPLSLPVSLGDQASISCRSSQSIVHSDGNTYLEWYLQKPGQSPKLLIYKVSNRFSGVPDRFSGSGSGTDFTLKISRVEAEDLGVYYCFQGSHFPLTFGAGTKLELK |
| no binding (tested: 2000 nM) | no binding (tested: 2000 nM) | binds | no binding | 8.2 | 3.46 | anti-MS4A4A antibody 4A-9 (antibody, V domains shown, murine hybridoma antibody) VH: DVQLQESGPGLVKPSQSLSLTCSVTGYSITSGYYWNWIRQFPGNKLEWMGYISYDGNNKYNPSLKNRISITRDTSKNQFFLKLNSVTTEDTATYYCANRDYWGQGTTLTVSS VL: DVLMTQTPLSLPVSLGDQASISCRSSQNIVHSNGITYLEWFLQKPGQSPTLLIYKISNRFSGVPDRFSGSGSGTDFTLKISRVEAEDLGVYYCFQGSHVPYTFGGGTKLDIK |
| no binding (tested: 2000 nM) | no binding (tested: 2000 nM) | binds | no binding | 7.31 | 2.58 | anti-MS4A4A antibody 4A-3 (antibody, V domains shown, murine hybridoma antibody) VH: QIQLVQSGPELKTPGETVKISCKSSGYTFTKYGMNWVKQAPGKGLKWMAWINTYTAEPTYGDDFKGRFALSLETSANTAYLQINNLKNEDTATYFCARSAELVRHYYALDYWGQGTSVTVSS VL: DVLMTQTPLSLPVSLGDQASISCRSSQSLVHSNGNIYLEWFLQKPGQSLKILIYKVSNRFSGVPDRFSGSGSGTDFTLKISRVEADDLGVYYCSQGSHVPPTFGAGTKLELR |
